Test results reported in paper PMC10849588.

Target: GMPCPP-stabilized, fluorescently labeled, biotinylated microtubules (untreated) (UniProt P02550)

% of (+)-end movements, Clusters, 110 mM KCl: 41%
% of (+)-end movements, Monomers (single molecules), 110 mM KCl: 29%
% of total runs >60 s, Monomers (single molecules), 110 mM KCl: 17%
Substance: wild-type full-length Cin8, GFP- and 6x His-tagged (from UniProt P27895 1-1000) (natural protein)
